Data published in the nanobody polyreactivity screen of Harvey et al. (2022).

Assay: yeast display, Sf9 membrane polyspecificity reagent, FACS + sequencing; frameworks hold sequencing errors
Summary of the method: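 Galactose induction of a Saccharomyces cerevisiae BJ5465 synthetic nanobody display library ran 36–48 hours. The cells were then stained for 1 hour at 4 °C with 10% biotinylated, detergent-solubilized Sf9 membrane reagent, pulled down on streptavidin microbeads and FACS-sorted into low and high (top ~1%) gates on expression and reagent-binding fluorescence. Labels for polyreactivity follow the gate of origin.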

Sequence	polyreactivity (PSR sort gate)
QVQLVESGGGLGQAGGSLRLSFAASGRTFWYNAMGWYRQAPGKERELVAAISNGGSTNYADSVKGRFTISRDYATNTVYLQMNSVKPEDTAVDYCNAGLYRSPYPGRLGSRYDYWGQGTQVTVSS	high polyreactivity
QVQLVESGGGLVQAGGSLRLSCAASGITFDYYAMGWYRQAPGKERELVAAISYSGGSTYYADSVKGRFTISRDNAKNTVYLQMNSLKPEDTAVYYCAAETFTISSDYYYWGQGTQVTVSS	low polyreactivity
QVQLVESGGGLVQAGGSLRLSCAASGSILSYYAMGWYRLAPGKEREFVAAISSGGGTYYADSVKGRFTISRDNAKNTVYLQMNSLKPEDTAVYYCNAVHASSIQFEYWGQGTKVTVSS	low polyreactivity
QVQLQESGGGLVQAGGILRLSCAACGNIFPSAVMGWYRQALGKEREFVATINSGSNTYYADSVKGRFTISRDNAKNTVYLQMNSLNLEDNAVYYCAAYFKLPAWHTYWGQGTQVTVSS	low polyreactivity
QVQLVESGGGLVQAGRILRISCAASGFKYAMGWYRQEPGKERELVAAISSGGITSYADSVKGRFTISRDNAKNTVYLQMNSLKPEDTAVYYCAAALRRRRAYFDYWGQGTQVTVSS	high polyreactivity
QVQLVESGGGFDQAGGSLRLSCAASGITFYDNVMGSYIQAPGKERELVAAITSGGSTNYSDSVKGRFTISRANAKNTVYLQMNSLKPEDTAVYYCAATPYGIGYDYWGQGTEVTVSS	low polyreactivity
QVQLVESGGGLVQAGGSLRLSCAASGFTFKGNAMGWKRPAPGKERELVAGISRSGRTYYADSVKGRFTISRDNAKNTVYLQMNSLKPEDTAVYYCNVVYTYWRYYRWREYDYWGQGTQVTVSS	high polyreactivity
QVQLVESGGGLVQAGGSLRLSCAAYGSTFGDYAMGWYRQAPGKERELVAAITIGGITTYADSVKGRFTISRDNAKNTVYLQMNSLKPEDTAVYYCADAERGDWDDYWGQGTQVTVSS	low polyreactivity
QVQLVESAGGLVQAGGSLRLTCAASGRTYFPYAMGLYRQAPGKERELVAAITWSATTTYYADSVKGRFTISRDNAKNTVYLQMISLKPEDTAVYYCNARGDYWGQGTQVTVSS	low polyreactivity
QVQLVESGGGLVQAGGSLRLSCAASGRIFRSNTMGWYRQAPGKERELVAAITRRGGSTYYADSVKGRFTISRDNAKNTVYLQLNSLKPEDTAVYYCAAVKSYYSEYGYWGQGTQGTVSS	high polyreactivity
QVQLVESGGGLVQAGGSLRLSCAASGGIFNVNAMGWYRQAPWKERELVAAIDWSSSSTDYADSVKGRFTISRDNAKNTVYLQMNSLKPEDTAVYYCAKLAGYSPTFEYWGQGTQVTVSS	low polyreactivity
QDQLVESGGGLVQAGGSLRLSCAASGSILRAYAMGWYRQAPGKERELVADIDWSAGITHYADSVKGRFTISRDNAMNPVYLQMNSLKPEDTAVYYCSARYYWYDYIVYYGDYWGQGTLVTVSS	high polyreactivity
QVQLVESGGGLVQAGGSLRLSCAASGRIFATNAMGWYRQAPGKEMELVATITRSAGRTYYADSVKGRFTISRDNAKNTVYLQMNSLKPEDTAVYYCAASYWDTEPGYREYDYWGQGTQVTVSS	low polyreactivity
QVQLVESGGGLVQAGGSLRLSCAASGRTFGKNAMGWYRQAPGKEMEFVAAITSRGGSTYYADSVKGRFTISRDNAKNTVYLQLNSLIPVDTAVYYCYGEYKRPSQRTEHYYWGQGSQVTVSS	low polyreactivity
QVQLVESGGGLVQAGGSLRLSCAASGSIFTRNAMGWYRPAPGKERELVAAISRRGVSTYYADSVKGRFTTSRDNAKNTVYLQMNSLKPEDTAVYYCNKLSSYVVARRTTEYDYWGQGTQVTVSS	high polyreactivity
QVQLVESGGGLVQAGGSLRLSCAASGSTFWLYAMGWYRPAPGKERELVASISSRGGSTYYADSVKGRFTISRDYAKNTVYLQMNSLKPEDTAVYYCAAKDIRYDDDYWGQGTQVTVSS	low polyreactivity

Sequence	polyreactivity (PSR sort gate)
QVQLVESGGGLVQAGGSLRLSCAASGSIFWTYAMGWSRQAPGKERELVATITYSDGNTYYADSVKGRFTISRDNAKNTVYFQMNSLKPEDTAVYYCNADGIYATISGYRYDYWGQGTQVTVSS	low polyreactivity
QVQLVESGGGLVQAGGSLRLSCAASGSTFFEYTMGWYRQAPGKEREFVADIRGRDGSTSYADSVKGRFTISRDNAKNTVYLQMKSLKPEDTAVYYCGADVSDWWSFGNDSWGHGTQVTVSS	low polyreactivity
QVQLVESGGGLVQAGGSLRLSCAASGFIFDQYAMGWYRQAPGKERELVATITSDGDTYYADSVKGRFTISRDNAKNTVYLQMNSLKPDDTAFYYFAVDPGPYTTGYEYWGQGTQLTVSS	low polyreactivity
QVQLVESGGGLVQAGGSLRLSCAAYGFTFYPYAMGWYRQAPGKEREVVAASNSGGSTYYADSVKGRFTISRDNAKNTVYLQMNSLKPEDTAVYYCSAYGKRGAVAFYYWGQGTQVTVSS	high polyreactivity
QVQLVESGGGLVQAGGSHRLSCAASGGTFDDYALGWYRQAPGKERELVAAISSSGGSTYYADSVKGRFTISRDNAKNTVYLQMNSLKPEDTAVYYCAVDAYWRLWYYPYESHHDYWGQGTQVTVSS	low polyreactivity
QVQLVESGGGLVHSGRSLRLSCAASGSISCHYAMGWYRTAHGKERDLLAAIDSSGGIKYYADSVKGRFTISRDNSKNTVYLQMNSLKPEDTAVYYCAAVFLLFGFEWSYDYWGQGTQVTVSS	low polyreactivity
QVQLVESGGGLVQAGGSLRLSCAASGFIFYVNDMGWYRQAPGKERELVADISGGTSTNYADSVKGRFTMSRDNAKNTVYLQMNSLNPEDTAVYYCNKYVAYDYWGQGTQVTVSS	low polyreactivity
QVQLVESGGGLVQAGGSLRLSCAASGRTFLTNAMGWYRQAPGKERELVAAISGGGDDTFYADSVKGRFTISRDNAKNTVYLQMNSLKPEDTAVYYCAADWYTPGWRKEEEYWGQGTQVTVSS	low polyreactivity
QVQLVESGGGLVQAGGSLRLSCAASGSTFDANAMGWYRQAPGKERELVATISDGGSTNYADSVKGRFTISRDNAKNTVYVQMNSLKPEDTAVYYCAAVKLFLGLGYDYWGQGTEVTVSS	low polyreactivity
QVQLVESGGGLVQAGGSLRLSCAASGFIFRYYAMGWYRQAPGKERELVAAITSRGSSTYYADSVKGRFTISRDNAKNTVYLQMNSLKPEDTAVYYCAARSSATRSWIASRPGYRYNYWGQGTQVTVSS	high polyreactivity
QVQLVESGGGLVQAGGSLRLSCAASGRIFYFNAMGWYRQAPGKERELVAAISGSGGDTYYADSVKGRFTISRDNAKNTVYLQMNSLKPEDTAVYYCAAEVYTWGQGTQVTVSS	low polyreactivity
QVQLVESGGGLVQAGGSLRLSCAASGITFYGNAMGLYRQAPGKERELVANTYYADSVKGRFTISRDNAKNTVYLQMNSLKPEDTAVYYCANRNARYRSLPPGYDYWGLGTQVTVSS	low polyreactivity
QVQLVESGGGLVQAGGSLRLSCAASGNTFPAYAMGWYRQAPGTGGELVATISWSTGSTNYADSVKGRFTISRDNAKNTVYLQMNSLKPEDTAVYYCNKRYPSDQMDYWGQGTQVTVSS	low polyreactivity
QVQHVESRGGIVQAGGSLRLSCAASGFILYFNAMGWYRQAPGKERELVAAITSDGGSTYYADSVKGRFTISRDNAKNTVYLQMNSLKPEDTAVYYCAADASTWYTEEYWGQGTQVTVSS	low polyreactivity
QVQIVESGGGLVQAGGSLRLSCAASGSTFTFYAMGSYRQAPGKERELVASITQSTGSTHYADSVKGRFTISRDNEKNTVFLQMNSLNPEDTAVYYCKAQKIVYYLVTLFPYYYWGQGSQVTVSS	low polyreactivity
QVQLVESCGGLVQAGGSHRLSCDASGRIFTGYAMGWYRQAPGKERELVAAISWGGGRTYYADSVKGRFTISRDNAKNTVYLQMNSLKPEDTADYYCNRAAGGRSTPYYYWGQGTQVTVSS	high polyreactivity
